For assay [1], the target named is soluble monomeric FcγRIIIA-linker-AVITAG (human) (UniProt P08637). In words: ELISA.
For another assay, the target named is soluble FcγRIIB (human) (UniProt P31994). Put plainly: ELISA. (In general: In an ELISA, binding on a coated surface is turned into a signal by an enzyme label.)

As for “ch4-4-20 V273I, K326E, L328I, P396L (antibody)”, the fold increase vs wt in assay [1] turned out to be 1.3 x; with soluble FcγRIIB (human), 10.8 x.
Regarding ch4-4-20 V284A, F372L (antibody), in assay [1], the fold vs wt was 1 x.
In the case of ch4-4-20 K246I, Q362H, K370E (antibody), the fold decrease vs wt with soluble FcγRIIB (human) was determined as 0.5 x.
For ch4-4-20 K290T, G371D (antibody), the fold increase vs wt in assay [1] came to 0.25 x; with soluble FcγRIIB (human) it was 6 x.
For the substance ch4-4-20 S407I (antibody), the fold increase vs wt worked out at 0.5 x in assay [1] and 4 x with soluble FcγRIIB (human).
Take ch4-4-20 S298N, S407R (antibody): the fold increase vs wt in assay [1] amounted to 0.5 x; with soluble FcγRIIB (human), 7 x.
For ch4-4-20 K218R, G281D, G385R (antibody), the fold increase vs wt in assay [1] is 3.5 x.
Take ch4-4-20 S415I, L251F (antibody): the values for the fold increase vs wt (in assay [1]; with soluble FcγRIIB (human)) were 0.5 x and 0.75 x, respectively.
As to ch4-4-20 D399E, M428L (antibody), the fold decrease vs wt (in assay [1]; with soluble FcγRIIB (human)) was 0.5 x each time.
As for ch4-4-20 K246T, P396H (antibody), the fold increase vs wt in assay [1] was determined as 1 x; with soluble FcγRIIB (human) it was 2.5 x.
Regarding ch4-4-20 Q347H, A339V (antibody), the fold increase vs wt in assay [1] turned out to be 0.5 x.
Regarding “ch4-4-20 L235P, V382M, S304G, V305I, V323I (antibody)”, the fold increase vs wt in assay [1] turned out to be 2 x.
As for ch4-4-20 L398V (antibody), the fold increase vs wt in assay [1] is 1.5 x.
In the case of ch4-4-20 K334N, P396L (antibody), the fold increase vs wt in assay [1] was 3.1 x.
In the case of ch4-4-20 K414N (antibody), in assay [1], the fold decrease vs wt was determined as 0.25 x.
Take ch4-4-20 S375C, P396L (antibody): the results for the fold increase vs wt (in assay [1]; with soluble FcγRIIB (human)) were 1.5 x and 4.5 x, respectively.
On to ch4-4-20 S400F, P396L (antibody), for which the figures for the fold increase vs wt (in assay [1]; with soluble FcγRIIB (human)) were 1.5 x and 4.7 x, respectively.
ch4-4-20 P247L, A431V, S442F (antibody) gave a fold vs wt in assay [1] of 1 x.
Take ch4-4-20 F275I, K334N, V348M (antibody): the fold increase vs wt in assay [1] worked out at 0.5 x.
As for ch4-4-20 D312E, K327N, I378S (antibody), the fold increase vs wt in assay [1] came out at 0.5 x.
Take “ch4-4-20 T335N, K370E, A378V, T394M, S424L (antibody)”: the fold increase vs wt in assay [1] was 0.5 x.
In the case of “ch4-4-20 T256S, V305I, K334E, N390S (antibody)”, the fold increase vs wt in assay [1] was 1.5 x.
Regarding ch4-4-20 P291S, P353Q (antibody), the results for the fold decrease vs wt (in assay [1]; with soluble FcγRIIB (human)) were 0.5 x and 0.25 x, respectively.
Take “ch4-4-20 S383N, N384K, T256N, V262L, K218E, R214I, K205E, F149Y, K133M (antibody)”: the fold increase vs wt in assay [1] came out at 0.5 x.
On to ch4-4-20 D401V (antibody), for which the fold increase vs wt in assay [1] was determined as 0.5 x.
For ch4-4-20 H268D, E318D (antibody), in assay [1], the fold increase vs wt was determined as 1.5 x.
As to ch4-4-20 K320E, K326E (antibody), in assay [1], the fold increase vs wt was 1 x.
Take ch4-4-20 I377N (antibody): the fold decrease vs wt in assay [1] was 0.5 x.
On to ch4-4-20 P247S, P396L (antibody), for which the results for the fold increase vs wt (in assay [1]; with soluble FcγRIIB (human)) were 1.2 x and 4.2 x, respectively.
For ch4-4-20 S400P (antibody), the fold increase vs wt in assay [1] is 1 x; with soluble FcγRIIB (human), 6 x.
ch4-4-20 E258D, P396L (antibody): the results for the fold increase vs wt (in assay [1]; with soluble FcγRIIB (human)) were 1.9 x and 4.9 x, respectively.
In the case of “ch4-4-20 P291S, K288E, H268L, A141V (antibody)”, the fold decrease vs wt in assay [1] was determined as 0.5 x.
Regarding ch4-4-20 V305L, P396L (antibody), the fold increase vs wt in assay [1] amounted to 1.3 x; in the assay with soluble FcγRIIB (human), 5.5 x.
Take ch4-4-20 T394M, V397M (antibody): in assay [1], the fold increase vs wt amounted to 0.5 x.
With ch4-4-20 T223I, T256S, L406F (antibody), the fold increase vs wt in assay [1] was 0.25 x; with soluble FcγRIIB (human) it was 6 x.
Taken in the same sequence, the figures for ch4-4-20 I377F (antibody) were 1.5 x and 0.5 x.
With ch4-4-20 K246R, S298N, I377F (antibody), the fold increase vs wt in assay [1] worked out at 1 x.
Regarding ch4-4-20 R255L, P396L (antibody), the fold increase vs wt in assay [1] worked out at 1.8 x; in the assay with soluble FcγRIIB (human), 6 x.
As to ch4-4-20 K246T, Y319F (antibody), in assay [1], the fold increase vs wt was 1 x.
Turning to ch4-4-20 K334E (antibody), in assay [1], the fold increase vs wt amounted to 2.5 x.
On to ch4-4-20 H224L (antibody), for which, in assay [1], the fold increase vs wt is 0.5 x.
Turning to “ch4-4-20 K334E, T359N, T366S, Q386R (antibody)”, the fold increase vs wt in assay [1] amounted to 1 x.
Turning to ch4-4-20 V397M, T411A, S415N (antibody), the fold increase vs wt in assay [1] came to 0.25 x.
Turning to ch4-4-20 P247L, I377F (antibody), the fold increase vs wt in assay [1] stood at 1 x.
For ch4-4-20 V379M, P396L (antibody), the fold increase vs wt is 1.9 x in assay [1] and 5.6 x in the assay with soluble FcγRIIB (human).
Take ch4-4-20 P217S, A378V, S408R (antibody): the fold increase vs wt in assay [1] was found to be 2 x; with soluble FcγRIIB (human), 4.5 x.
For the substance ch4-4-20 V240A, P396L (antibody), the fold increase vs wt in assay [1] came to 1.3 x; in the assay with soluble FcγRIIB (human), 4.2 x.
As for ch4-4-20 P247L, A330T, S440G (antibody), the fold increase vs wt in assay [1] turned out to be 0.75 x. For the same substance, the fold decrease vs wt with soluble FcγRIIB (human) is 0.25 x.
Take “ch4-4-20 K326Q, K334E, T359N, T366S (antibody)”: the fold increase vs wt in assay [1] stood at 1.5 x.
Regarding ch4-4-20 K288N, K326N (antibody), the fold increase vs wt in assay [1] was found to be 1 x.
In the case of ch4-4-20 R301H, K340E, D399E (antibody), the fold decrease vs wt in assay [1] was found to be 0.5 x; in the assay with soluble FcγRIIB (human), 0.25 x.
In the case of ch4-4-20 L242F, P396L (antibody), the fold increase vs wt in assay [1] was found to be 2.5 x; in the assay with soluble FcγRIIB (human) it was 4.1 x.
The corresponding values for ch4-4-20 L358P, P396L (antibody) are 1.9 x and 4.2 x.
Taken in the same sequence, the figures for ch4-4-20 K326I, P396L (antibody) were 2.9 x and 5.9 x.
ch4-4-20 T225S (antibody): the fold decrease vs wt in assay [1] came to 0.25 x; with soluble FcγRIIB (human), 0.5 x.
Turning to ch4-4-20 S298N, W381R (antibody), in assay [1], the fold increase vs wt was 2 x.
“ch4-4-20 K222N, T335N, K370E, A378V, T394M (antibody)”: the fold increase vs wt in assay [1] is 1 x; in the assay with soluble FcγRIIB (human) it was 7 x.
With ch4-4-20 P247L, L398Q (antibody), in assay [1], the fold increase vs wt was 1.25 x.
In the case of ch4-4-20 R255Q, K326E (antibody), the fold increase vs wt in assay [1] is 2 x.
Regarding ch4-4-20 P217A, T359A, P396L (antibody), the fold increase vs wt in assay [1] stood at 1.5 x; with soluble FcγRIIB (human), 4.8 x.
ch4-4-20 V282E, V369I, L406F (antibody): the fold increase vs wt in assay [1] was found to be 0.5 x; in the assay with soluble FcγRIIB (human) it was 7 x.
ch4-4-20 P247L, W313R, E388G (antibody): the fold increase vs wt in assay [1] is 1.5 x.
As to ch4-4-20 P247L, E389G (antibody), the figures for the fold increase vs wt (in assay [1]; with soluble FcγRIIB (human)) were 1.5 x and 9 x, respectively.
For the substance ch4-4-20 N315I, V379M, T394M (antibody), in assay [1], the fold increase vs wt was 1 x and the fold vs wt is 1 X. In addition, in the assay with soluble FcγRIIB (human), the fold increase vs wt was determined as 9 x and the fold vs wt was determined as 9 X.
As for ch4-4-20 H310Y, T289A, G337E (antibody), in assay [1], the fold increase vs wt turned out to be 0.5 x.
On the same count and under the same terms, to ch4-4-20 F243L, R255L, E318K (antibody) belongs 1 x.
Consider ch4-4-20 K370E, P396L (antibody), for which the values for the fold increase vs wt (in assay [1]; in the assay with soluble FcγRIIB (human)) were 2 x and 6.6 x, respectively.
On to “ch4-4-20 P217S, V305I, I309L, N390H, P396L (antibody)”, for which the fold increase vs wt in assay [1] amounted to 2 x; with soluble FcγRIIB (human) it was 7 x.
Regarding ch4-4-20 N315I (antibody), the fold increase vs wt in the assay with soluble FcγRIIB (human) amounted to 0.75 x.
Turning to ch4-4-20 T250S, P396L (antibody), the fold increase vs wt in assay [1] was 1.5 x; in the assay with soluble FcγRIIB (human), 6.8 x.
In the case of ch4-4-20 K334N (antibody), the fold increase vs wt in assay [1] was determined as 0.5 x.
Still for that read-out and setting: the figure for “ch4-4-20 D280E, S354F, A431D, L441I (antibody)” is 3 x; for ch4-4-20 E233D, K334E (antibody) it is 1.5 x.
Turning to ch4-4-20 K290T, N390I, P396L (antibody), the fold increase vs wt was 2.8 x in assay [1] and 6.1 x with soluble FcγRIIB (human).
For ch4-4-20 L410H, P396L (antibody), the fold increase vs wt in assay [1] came out at 1.7 x; in the assay with soluble FcγRIIB (human), 4.5 x.
In the case of ch4-4-20 P396L (antibody), in assay [1], the fold increase vs wt was found to be 1 x.
With ch4-4-20 D399E, R292L, V185M (antibody), the fold increase vs wt with soluble FcγRIIB (human) is 0.5 x.
Consider ch4-4-20 P396H (antibody), for which the fold increase vs wt in assay [1] was 1 x.
Regarding ch4-4-20 S219Y (antibody), the fold increase vs wt in assay [1] was determined as 1 x.
For the substance ch4-4-20 K334I (antibody), the fold increase vs wt in assay [1] turned out to be 1 x.
Consider ch4-4-20 T335N, P387S, H435Q (antibody), for which, in assay [1], the fold vs wt came out at 1.25 x.
In the case of ch4-4-20 F275Y (antibody), the fold increase vs wt in assay [1] came out at 3 x.
As for ch4-4-20 V282M (antibody), the fold increase vs wt in assay [1] was 1 x.
On the same count and under the same terms, the figure for ch4-4-20 A378V, N390I, V422I (antibody) is 0.5 x.
ch4-4-20 R301C, M252L, S192T (antibody): the fold decrease vs wt in assay [1] was determined as 0.5 x.
Turning to ch4-4-20 K326E, G385E (antibody), the fold increase vs wt in assay [1] was determined as 0.5 x.
On the same count and under the same terms, the figure for ch4-4-20 K222N (antibody) is 1 x; for ch4-4-20 V279L, P395S (antibody) it is 1 x.

The record behind these values is US20060134709A1.
